Here are results for six molecules from US20120034160A1 (AbbVie / Abbott, published 2012).

Bounds are passed on as bounds.

One assay addresses T1, Recombinant Human IL-17 (human, UniProt Q16552 20-155, limits assumed).
T1 construct: bought reagent
T1 sequence (looked up): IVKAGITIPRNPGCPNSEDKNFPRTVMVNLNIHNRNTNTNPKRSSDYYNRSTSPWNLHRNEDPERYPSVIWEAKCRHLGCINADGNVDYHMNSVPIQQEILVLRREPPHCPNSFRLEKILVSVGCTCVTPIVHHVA
The experiment in a line: Biacore SPR; C-terminal VD. The method, boiled down: (§1)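 Rate constants fitted globally to a 1:1 Langmuir model from antigen series of 10−200 nM flowed at 25 μl/min over captured antibody or DVD-Ig (anti-mouse IgG Fcγ capture, ligand at 25 μg/ml).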

The target of a further assay is T2, Recombinant Human IL-1β (human, UniProt P01584 117-269).
T2 construct: bought reagent; also called IL-1B
The experiment in a line: Biacore SPR; N-terminal VD. The method, boiled down: as §1

B1: DVD1264 (bispecific antibody, human IgG1, kappa)
heavy: not shown
light: DIQMTQSPSSLSASVGDRVTITCRASGNIHNYLTWYQQTPGKAPKLLIYNAKTLADGVPSRFSGSGSGTDYTFTISSLQPEDIATYYCQHFWSIPYTFGQGTKLQITRTVAAPDIQMTQSPSSLSASVGDRVTITCRASSGIISYIDWFQQKPGKAPKRLIYATFDLASGVPSRFSGSGSGTDYTLTISSLQPEDFATYYCRQVGSYPETFGQGTKLEIKRTVAAPSVFIFPPSDEQLKSGTASVVCLLNNFYPREAKVQWKVDNALQSGNSQESVTEQDSKDSTYSLSSTLTLSKADYEKHKVYACEVTHQGLSSPVTKSFNRGEC
notes: V1 wt hIgG1, V2 kappa; also called DVD1264H; DVD1264L
Turning to B1, in the assay with Recombinant Human IL-17, the Kd (commonly the constant that tells how readily two partners part at equilibrium) stood at 300 pM; the koff (in general, a measure of how fast the partners let go of each other) is 1.1e-05 s⁻¹; the kon (usually the second-order rate constant of association) was determined as 37000 M⁻¹ s⁻¹. For the same molecule, in the assay with Recombinant Human IL-1β, the Kd is 0.024 nM, the koff stood at 2.2e-05 s⁻¹ and the kon was found to be 940000 M⁻¹ s⁻¹.

B2: DVD1605 (bispecific antibody, human IgG1, kappa)
heavy: not shown
light: DTVVTQSPAFLSVTPGEKVTITCITSTDIDVDMNWYQQKPDQPPKLLISQGNTLRPGVPSRFSSSGSGTDFTFTISSLEAEDAATYYCLQSDNLPLTFGQGTKLEIKRTVAAPSVFIFPPEIVLTQSPDFQSVTPKEKVTITCRASQDIGSELHWYQQKPDQPPKLLIKYASHSTSGVPSRFSGSGSGTDFTLTINGLEAEDAGTYYCHQTDSLPYTFGPGTKVDIKRTVAAPSVFIFPPSDEQLKSGTASVVCLLNNFYPREAKVQWKVDNALQSGNSQESVTEQDSKDSTYSLSSTLTLSKADYEKHKVYACEVTHQGLSSPVTKSFNRGEC
notes: DVD-Ig, outer AB271, inner AB274, linker set 2; V1 wt hIgG1, V2 kappa; also called DVD1605H; DVD1605L
Consider B2, for which, in the assay with Recombinant Human IL-17, the Kd was no more than 0.068 pM, the koff was less than 1e-06 s⁻¹ and the kon came to 410000 M⁻¹ s⁻¹. In the assay with Recombinant Human IL-1β, the Kd came out at 0.059 nM, the off-rate constant (koff) amounted to 0.0005 s⁻¹ and the kon stood at 8.6e+06 M⁻¹ s⁻¹.

B3: DVD1599 (bispecific antibody, human IgG1, kappa)
heavy: not shown
light: DIQMTQSPSSLSASVGDRVTITCRASGNIHNYLTWYQQTPGKAPKLLIYNAKTLADGVPSRFSGSGSGTDYTFTISSLQPEDIATYYCQHFWSIPYTFGQGTKLQITRTVAAPSVFIFPPEIVLTQSPDFQSVTPKEKVTITCRASQDIGSELHWYQQKPDQPPKLLIKYASHSTSGVPSRFSGSGSGTDFTLTINGLEAEDAGTYYCHQTDSLPYTFGPGTKVDIKRTVAAPSVFIFPPSDEQLKSGTASVVCLLNNFYPREAKVQWKVDNALQSGNSQESVTEQDSKDSTYSLSSTLTLSKADYEKHKVYACEVTHQGLSSPVTKSFNRGEC
notes: V1 wt hIgG1, V2 kappa; also called DVD1599H; DVD1599L
As for B3, in the assay with Recombinant Human IL-17, the dissociation constant (Kd) was no more than 0.074 pM, the koff was less than 1e-06 s⁻¹ and the kon was 120000 M⁻¹ s⁻¹. In the assay with Recombinant Human IL-1β, the Kd is 0.021 nM, the koff is 4.1e-05 s⁻¹ and the kon is 2e+06 M⁻¹ s⁻¹.

B4: DVD1609 (bispecific antibody, human IgG1, kappa)
heavy: not shown
light: DIQMTQSPSSLSASVGDRVTITCRASGNIHNYLTWYQQTPGKAPKLLIYNAKTLADGVPSRFSGSGSGTDYTFTISSLQPEDIATYYCQHFWSIPYTFGQGTKLQITRTVAAPSVFIFPPEIVLTQSPDFQSVTPKEKVTITCRASQNIGSELHWYQQKPDQSPKLLIKYASHSISGVPSRFSGSGSGTDFTLTINGLEAEDAATYYCHQSDTLPHTFGQGTKVDIKRTVAAPSVFIFPPSDEQLKSGTASVVCLLNNFYPREAKVQWKVDNALQSGNSQESVTEQDSKDSTYSLSSTLTLSKADYEKHKVYACEVTHQGLSSPVTKSFNRGEC
notes: V1 wt hIgG1, V2 kappa; also called DVD1609H; DVD1609L
On to B4, for which, in the assay with Recombinant Human IL-17, the dissociation constant (Kd) is no more than 0.84 pM, the koff is less than 1e-06 s⁻¹ and the kon is 89000 M⁻¹ s⁻¹. Besides, in the assay with Recombinant Human IL-1β, the Kd stood at 0.022 nM, the koff amounted to 4.6e-05 s⁻¹ and the kon was found to be 2.1e+06 M⁻¹ s⁻¹.

B5: DVD1601 (bispecific antibody, human IgG1, kappa)
heavy: not shown
light: DIQMTQSPSSLSASVGDRVTITCRASGNIHNYLTWYQQTPGKAPKLLIYNAKTLADGVPSRFSGSGSGTDYTFTISSLQPEDIATYYCQHFWSIPYTFGQGTKLQITRTVAAPSVFIFPPEIVLTQSPDFQSVTPKEKVTITCRASQDIGSELHWYQQKPDQPPKLLIKYASHSTSGVPSRFSGSGSGTDFTLTINGLEAEDAGTYYCHQTDSLPYTFGPGTKVDIKRTVAAPSVFIFPPSDEQLKSGTASVVCLLNNFYPREAKVQWKVDNALQSGNSQESVTEQDSKDSTYSLSSTLTLSKADYEKHKVYACEVTHQGLSSPVTKSFNRGEC
notes: V1 wt hIgG1, V2 kappa; also called DVD1601H; DVD1601L
Regarding B5, in the assay with Recombinant Human IL-17, the Kd is no more than 0.12 pM, the koff was less than 1e-06 s⁻¹ and the kon stood at 120000 M⁻¹ s⁻¹. Further, in the assay with Recombinant Human IL-1β, the Kd came out at 0.016 nM, the off-rate (koff) is 2e-05 s⁻¹ and the kon turned out to be 1.2e+06 M⁻¹ s⁻¹.

B6: DVD1595 (bispecific antibody, human IgG1, kappa)
heavy: not shown
light: DTVVTQSPAFLSVTPGEKVTITCITSTDIDVDMNWYQQKPDQPPKLLISQGNTLRPGVPSRFSSSGSGTDFTFTISSLEAEDAATYYCLQSDNLPLTFGQGTKLEIKRTVAAPSVFIFPPDIQMTQSPSSLSASVGDRVTITCRASSGIISYIDWFQQKPGKAPKRLIYATFDLASGVPSRFSGSGSGTDYTLTISSLQPEDFATYYCRQVGSYPETFGQGTKLEIKRTVAAPSVFIFPPSDEQLKSGTASVVCLLNNFYPREAKVQWKVDNALQSGNSQESVTEQDSKDSTYSLSSTLTLSKADYEKHKVYACEVTHQGLSSPVTKSFNRGEC
notes: DVD-Ig, outer AB271, inner AB273, linker set 2; V1 wt hIgG1, V2 kappa; also called DVD1595H; DVD1595L
Consider B6, for which, in the assay with Recombinant Human IL-17, the Kd worked out at 4.3 pM, the koff is 6e-06 s⁻¹ and the on-rate constant (kon) turned out to be 1.4e+06 M⁻¹ s⁻¹. In addition, in the assay with Recombinant Human IL-1β, the equilibrium dissociation constant (Kd) was determined as 0.055 nM, the koff was 0.00041 s⁻¹ and the kon came to 7.4e+06 M⁻¹ s⁻¹.
